Laboratory results taken from patent publication US20170369590A1 (Genmab, published 2017).
Residue numbers refer to the chain shown, from its start.

Experiments:
HER2ECDHis [1] = target: T1, HER2ECDHis (human, UniProt P04626 23-653, biotinylated in the cross-block ELISA (sites not given)); test: ELISA; competitor 059
T1 construct: range 1-653; expressed in HEK-293F; also called soluble HER2; biotinylated HER2ECDHis

HER2ECDHis [2] = target: T1, HER2ECDHis; test: ELISA; competitor Tras
Protocol: (§1) Next, the ELISA wells were washed with PBST (PBS supplemented with 0.05% Tween-20 [Sigma-Aldrich, Zwijndrecht, The Netherlands]) and blocked for one hour at room temperature (RT) with PBSTC (PBST supplemented 2% [v/v] chicken serum [Gibco, Paisley, Scotland]). The ELISA wells were then washed with PBST and incubated for one hour at RT with HER2ECDHis serially diluted in PBSTC (0.25-2 μg/mL in 2-fold dilutions). […] The plate was thereafter washed with PBST and incubated for one hour with 0.1 μg/mL Streptavidin-poly-HRP (Sanquin, Amsterdam, The Netherlands) diluted in PBST. After washing, the reaction was visualized through a 15 minutes incubation with 2,2′-azino-bis (3-ethylbenzothiazoline-6-sulfonic acid) (ABTS: one ABTS tablet diluted in 50 mL ABTS buffer (Roche Diagnostics, Almere, The Netherlands)) at RT protected from light. The colorization was stopped by adding an equal volume of oxalic acid (Sigma-Aldrich, Zwijndrecht, The Netherlands). Fluorescence at 405 nm was measured on a microtiter plate reader (Biotek Instruments, Winooski, USA).
(§2) Each HER2 antibody was coated to the ELISA wells at the sub-optimal dose that was determined as described above. After blocking of the ELISA wells, the wells were incubated with the predetermined concentration of 1 μg/mL biotinylated HER2ECDHis in the presence or absence of an excess of a second (competitor) HER2 antibody. The ELISA was then performed as described above. […] Percentage competition was then determined as 100 minus the percentage of inhibition.

HER2ECDHis [3] = target: T1, HER2ECDHis; test: ELISA; competitor 106
Protocol: as §1, §2

HER2ECDHis [4] = target: T1, HER2ECDHis; test: ELISA; competitor F5
Protocol: as §1, §2

HER2ECDHis [5] = target: T1, HER2ECDHis; test: ELISA; competitor 111
Protocol: as §1, §2

HER2ECDHis [6] = target: T1, HER2ECDHis; test: ELISA; competitor 060
Protocol: as §1, §2

HER2ECDHis [7] = target: T1, HER2ECDHis; test: ELISA; competitor Pert
Protocol: as §1, §2

[8] = target: T2, human epidermal growth factor receptor 2 (HER2), membrane-bound on cells (human, UniProt P04626 23-1255); test: cell-based or functional assay
HER2ECDHis [9] = target: T1, HER2ECDHis; test: ELISA; competitor C1
Protocol: as §1, §2

[10] = target: T2, human epidermal growth factor receptor …; test: cell-based or functional assay; remark: listed apart in the source
HER2ECDHis [11] = target: T1, HER2ECDHis; test: ELISA; competitor 005
Protocol: as §1, §2

HER2ECDHis [12] = target: T1, HER2ECDHis; test: ELISA; competitor 006
Protocol: as §1, §2

HER2ECDHis [13] = target: T1, HER2ECDHis; test: ELISA; competitor 084
Protocol: as §1, §2

HER2ECDHis [14] = target: T1, HER2ECDHis; test: ELISA; competitor 050
Protocol: as §1, §2

HER2ECDHis [15] = target: T1, HER2ECDHis; test: ELISA; competitor 153
Protocol: as §1, §2

HER2ECDHis [16] = target: T1, HER2ECDHis; test: ELISA; competitor 159
Protocol: as §1, §2

[17] = target: T2, human epidermal growth factor receptor …; test: cell-based or functional assay; remark: listed apart in the source
HER2ECDHis [18] = target: T1, HER2ECDHis; test: ELISA; competitor 169
Protocol: as §1, §2

HER2ECDHis [19] = target: T1, HER2ECDHis; test: ELISA; competitor 025
Protocol: as §1, §2

HER2ECDHis [20] = target: T1, HER2ECDHis; test: ELISA; competitor 091
Protocol: as §1, §2

HER2ECDHis [21] = target: T1, HER2ECDHis; test: ELISA; competitor tras
Protocol: as §1, §2

HER2ECDHis [22] = target: T1, HER2ECDHis; test: ELISA; competitor pert
Protocol: as §1, §2

HER2ECDHis [23] = target: T1, HER2ECDHis; test: ELISA; competitor 127
Protocol: as §1, §2

HER2ECDHis [24] = target: T1, HER2ECDHis; test: ELISA; competitor 129
Protocol: as §1, §2

HER2ECDHis [25] = target: T1, HER2ECDHis; test: ELISA; competitor 132
Protocol: as §1, §2

HER2ECDHis [26] = target: T1, HER2ECDHis; test: ELISA; competitor 098
Protocol: as §1, §2

B1: HuMab 111 (antibody, V domains shown)
VH: QVQLVQSGAEVKKPGSSVKVSCKASGGTFSSYGISWVRQAPGPGLEWMGRIIPILGIANYAQKFQGRVTITADKSTNTAYMELSSLRSEDTAVYYCARDQEYSSNWYYWGQGTLVTVSS
VL: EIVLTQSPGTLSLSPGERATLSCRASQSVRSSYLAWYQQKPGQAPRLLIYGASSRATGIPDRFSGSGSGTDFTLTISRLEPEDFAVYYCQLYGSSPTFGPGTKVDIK
% binding vs no competitor (HER2ECDHis [1]): 65%
% binding vs no competitor (HER2ECDHis [2]): 110%
% binding vs no competitor (HER2ECDHis [3]): 75%
% binding vs no competitor (HER2ECDHis [4]): 119%
% binding vs no competitor (HER2ECDHis [5]): 14%
% binding vs no competitor (HER2ECDHis [6]): 36%
% binding vs no competitor (HER2ECDHis [7]): 102%
% cells killed, AU565, anti-kappa-ETA'-conjugated [8]: 72%
EC50 of cell kill, AU565, anti-kappa-ETA'-conjugated [8]: 0.0242 µg/mL
% binding vs no competitor (HER2ECDHis [9]): 122%
EC50, fab-CypHer5E internalization, AU565 [10]: 0.0352 µg/mL
Maximal MFI, fab-CypHer5E internalization, AU565 [10]: 81700 MFI
% binding vs no competitor (HER2ECDHis [11]): 51%
% binding vs no competitor (HER2ECDHis [12]): 10%

B2: HuMab 153 (antibody, V domains shown)
VH: QVQLVESGGGVVQPGRSLRLSCAASGFTFSDYVIHWVRQAPGKGLEWVTVISYDGSNKYYADSVKGRFTISRDNSKNTLYLQMNSLSAEDTAMYYCARGGITGTTGVFDYWGQGTLVTVSS
VL: DIQMTQSPSSLSASVGDRVTITCRASQGISSWLAWYQQKPEKAPKSLIYDASSLQSGVPSRFSGSGYGTDFSLTISSLQPEDFAIYYCQQYKSYPITFGQGTRLEIK
% binding vs no competitor (HER2ECDHis [13]): 107%
% binding vs no competitor (HER2ECDHis [4]): 96%
% binding vs no competitor (HER2ECDHis [14]): 103%
% binding vs no competitor (HER2ECDHis [15]): 28%
% binding vs no competitor (HER2ECDHis [16]): 23%
% cells killed, A431, anti-kappa-ETA'-conjugated [17]: 82.4%
EC50 of cell kill, A431, anti-kappa-ETA'-conjugated [17]: ~0.0101 µg/mL
% binding vs no competitor (HER2ECDHis [18]): 111%
% binding vs no competitor (HER2ECDHis [19]): 97%
% binding vs no competitor (HER2ECDHis [20]): 102%
% cells killed, AU565, anti-kappa-ETA'-conjugated [8]: 60.3%
EC50 of cell kill, AU565, anti-kappa-ETA'-conjugated [8]: 0.0323 µg/mL
% binding vs no competitor (HER2ECDHis [21]): 134%
% binding vs no competitor (HER2ECDHis [9]): 257%
EC50, fab-CypHer5E internalization, AU565 [10]: ~0.0149 µg/mL
Maximal MFI, fab-CypHer5E internalization, AU565 [10]: 87500 MFI
% binding vs no competitor (HER2ECDHis [22]): 121%
% binding vs no competitor (HER2ECDHis [23]): 27%
% binding vs no competitor (HER2ECDHis [24]): 106%
% binding vs no competitor (HER2ECDHis [25]): 33%
% binding vs no competitor (HER2ECDHis [26]): 115%

B3: HuMab 098 (antibody, V domains shown)
VH: EVQLLESGGGLVQPGGSLRLSCAASGFTFSNYGMSWVRQAPGKGLEWVSAISGSAYSTYYADSVKGRFTISRDNSKNTLWLQMNSLRAEDTAVYYCAKAHYHGSGSYYTLFDYWGQGTLVTVSS
VL: B2 VL with D50A, Y67S, S72T, I85T, K92N, I96Y, R103K
notes: also called TH1014-098; PC1014-098
% binding vs no competitor (HER2ECDHis [13]): 103%
% binding vs no competitor (HER2ECDHis [4]): 96%
% binding vs no competitor (HER2ECDHis [14]): 100%
% binding vs no competitor (HER2ECDHis [15]): 110%
% binding vs no competitor (HER2ECDHis [16]): 9%
% cells killed, A431, anti-kappa-ETA'-conjugated [17]: 87.2%
EC50 of cell kill, A431, anti-kappa-ETA'-conjugated [17]: 0.00165 µg/mL
% binding vs no competitor (HER2ECDHis [18]): 102%
% binding vs no competitor (HER2ECDHis [19]): 108%
% binding vs no competitor (HER2ECDHis [20]): 104%
% cells killed, AU565, anti-kappa-ETA'-conjugated [8]: 58.7%
EC50 of cell kill, AU565, anti-kappa-ETA'-conjugated [8]: 0.0121 µg/mL
% binding vs no competitor (HER2ECDHis [21]): 107%
% binding vs no competitor (HER2ECDHis [9]): 125%
EC50, fab-CypHer5E internalization, AU565 [10]: 0.0138 µg/mL
Maximal MFI, fab-CypHer5E internalization, AU565 [10]: 135000 MFI
% binding vs no competitor (HER2ECDHis [22]): 104%
% binding vs no competitor (HER2ECDHis [23]): 21%
% binding vs no competitor (HER2ECDHis [24]): 107%
% binding vs no competitor (HER2ECDHis [25]): 142%
% binding vs no competitor (HER2ECDHis [26]): 17%
